For one sequence, Kd results are on record in PMC5913840.

The term Kd denotes a measure of binding affinity in units of concentration.

Series [1] has as its system SavR (Staphylococcus aureus (NCTC8325?)). Description: ITC. Conditions: EMSA: 20 mM Tris-HCl pH 8.0, 100 mM NaCl, 25 C, 20 min; footprinting: same plus 5 mM MgCl2, 1 mM CaCl2, 25 C 30 min; ITC: 20 mM Tris-HCl pH 8.0, 100 mM NaCl …. (In general: Mobility shift assays separate free from complexed probe on a gel.)
For series [2], the target named is SavR;SavS (Staphylococcus aureus (NCTC8325?);Staphylococcus aureus (NCTC8325?)) (UniProt Q2FVF8). Description: ITC. Conditions: EMSA: 20 mM Tris-HCl pH 8.0, 100 mM NaCl, 25 C, 20 min; footprinting: same plus 5 mM MgCl2, 1 mM CaCl2, 25 C 30 min; ITC: 20 mM Tris-HCl pH 8.0, 100 mM NaCl ….

For “TACGCTAATTATAGCGTACGCACTTGAGTACGTCAA (double strand) [36-bp savRS operator]”, the results for the dissociation constant (Kd) in series [1] and in series [2] were 9.13 µM and 0.0267 µM, respectively.
